Data set [1] concerns hammerhead ribozyme. The conditions noted are these: retina of nude mice, toyocamycin drug pellet under dorsal skin, ribozyme-based sensor; cited from earlier work.
Data set [2] concerns luciferase reporter gene expression. Kind of data set: Luciferase reporter assay of tetracycline-aptamer polyA switch constructs with and without tc. In kind it is cell-based, human. The text has this:
The general strategy for detecting and imaging proteins via modulation of polyA cleavage is critically dependent upon the highly efficient cleavage of the polyA signal at the 5′ UTR (FIG. 1). A first step was to test candidate polyA signals and associated upstream and downstream motifs that enable efficient polyA cleavage in cells. For testing polyA cleavage efficiency, a transient transfection assay involving a mammalian expression vector^49 was used with a GFP or luciferase reporter (merely as examples). Candidate polyA signal sequences were cloned at the 5′UTR of the reporter gene or transgene within the expression vector.

Turning to `N#Cc1cn([C@@H]2O[C@H](CO)[C@@H](O)[C@H]2O)c2ncnc(N)c12` [toyocamycin], the “induced luciferase reporter expression” value in data set [1] was “up to 180 fold”.

B1: GP2SLGP2: two GP2 aptamers connected back to back (Helper and Center); SEQ ID NO: 59 (nucleic acid)
chain: GCTAGCCACACACACAAATCTGGGGAGGTGAAGAATACGACCACCTGCGTTTTATACTTTGTTAAAACATACCAGATCGAAAGATCTGGGGAGGTGAAGAATACGACCACCTAATAAAGTATAAAGTGCAAAACATACCAGATCTGTGTGTTGGTTTTTTGTGTGGAATTCCACACACACAAATCTGGGGAGGTGAAGAATACGACCACCTGCGTTTTATACTTTGTTAAAACATACCAGATCGAAAGATCTGGGGAGGTGAAGAATACGACCACCTAATAAAGTATAAAGTGCAAAACATACCAGATCTGTGTGTTGGTTTTTTGTGTGAACGGGGGAGGGGGAGGAAAGGGGGAGGGGGAGCGGCCGC
modifications: Synthetic Primerr
As for B1, the “induction (fold), ratio of luciferase activity with and without Tc” value (shortened to “induction (fold), ratio … with and without Tc”) came out at 70 fold in data set [2] (5 μg/mL Tc) and 104 fold in data set [2] (15 μg/mL Tc).

B2: D11A: GP2SLGP2 variant in stem/loop-II region; SEQ ID NO: 61 (nucleic acid)
chain: GCTAGCGAATTGCACACACACAAATCTGGGGAGGTGAAGAATACGACCACCTGCGTTTTATACTTTGTTAAAACATACCATCCTAAGCCTAAGGCAAACGCTATGGTATGGATGGGGAGGTGAAGAATACGACCACCTAATAAAGTATAAAGTGCAAAACATACCAGATCTGTGTGTTGGTTTTTTGTGTGGAATTCCACACACACAAATCTGGGGAGGTGAAGAATACGACCACCTGCGTTTTATACTTTGTTAAAACATACCAGATCGAAAGATCTGGGGAGGTGAAGAATACGACCACCTAATAAAGTATAAAGTGCAAAACATACCAGATCTGTGTGTTGGTTTTTTGTGTGAACGGGGGAGGGGGAGGAAAGGGGGAGGGGGAGCGGCCGC
modifications: Synthetic Primer
Take B2: the “induction (fold), ratio … with and without Tc” value is 84 fold in data set [2] (5 μg/mL Tc) and 127 fold in data set [2] (15 μg/mL Tc).

B3: C12: GP2SLGP2 variant in stem/loop-II region, central stem equivalent length 20 bp; SEQ ID NO: 60 (nucleic acid)
chain: CTGCAGCACACACACAAATCTGGGGAGGTGAAGAATACGACCACCTGCGTTTTATACTTTGTTAAAACATACCAGATCGAATTCGATCTGGGGAGGTGAAGAATACGACCACCTAATAAAGTATAAAGTGCAAAACATACCAGATCTGTGTGTTGGTTTTTTGTGTGGCTAGCCACACACACAAATCTGGGGAGGTGAAGAATACGACCACCTGCGTTTTATACTTTGTTAAAACATACCAGATCGAATTCGATCTGGGGAGGTGAAGAATACGACCACCTAATAAAGTATAAAGTGCAAAACATACCAGATCTGTGTGTTGGTTTTTTGTGTGAACGGGGGAGGGGGAGGAAAGGGGGAGGGGGAGCGGCCGC
modifications: Synthetic Primer
Take B3: the “induction (fold), ratio … with and without Tc” value in data set [2] (5 μg/mL Tc) is given as 94 fold; in data set [2] (15 μg/mL Tc), 151 fold.
